Source: patent US20250382381A1 (CORNELL UNIVERSITY, published 2025)

Assays:
[1] = molecular target: T1, human ART1 expressed on HEK293 cells (human, UniProt P52961 23-295); assay: cell-based or functional assay
T1 sequence: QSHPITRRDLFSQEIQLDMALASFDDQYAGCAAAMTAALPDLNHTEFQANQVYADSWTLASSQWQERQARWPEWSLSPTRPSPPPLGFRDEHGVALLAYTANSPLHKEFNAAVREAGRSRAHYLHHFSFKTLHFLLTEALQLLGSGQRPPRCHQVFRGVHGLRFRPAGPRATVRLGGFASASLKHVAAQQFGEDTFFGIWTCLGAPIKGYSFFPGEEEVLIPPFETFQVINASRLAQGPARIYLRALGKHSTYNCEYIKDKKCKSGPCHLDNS

[2] = molecular target: T2, purified recombinant human ART1 (human, UniProt P52961 23-295); assay: SPR; antibody captured on anti-mouse Fc surface, ART1 as analyte, 1:1 kinetic fit
T2 construct: Produced in HEK293 cells and purified; also called huART1; human ADP-ribosyltransferase 1
T2 sequence: T1 sequence
Experimental: (§1) FIGS. 12A-12D. […] Sensorgrams are double-reference subtracted using a control surface and blank injections. Affinity constants were determined by kinetic fit using a 1:1 binding model.

[3] = molecular target: T3, purified recombinant mouse ART1 (mouse, UniProt Q60935 23-290); assay: as above
T3 construct: Produced in HEK293 cells and purified; also called moART1; murine ART1
T3 sequence: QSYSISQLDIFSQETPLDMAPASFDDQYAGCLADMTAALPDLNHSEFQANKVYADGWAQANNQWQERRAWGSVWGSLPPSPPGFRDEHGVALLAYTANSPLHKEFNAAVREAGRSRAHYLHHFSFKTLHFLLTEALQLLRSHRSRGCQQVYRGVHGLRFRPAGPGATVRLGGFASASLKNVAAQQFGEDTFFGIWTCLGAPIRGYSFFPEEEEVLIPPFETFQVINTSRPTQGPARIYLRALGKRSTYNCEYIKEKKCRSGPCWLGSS
Experimental: as §1

[4] = molecular target: T1, human ART1 expressed on HEK293 cells; assay: panel 'ART1 Ab binding' on HEK293 cells transfected with ART1; y axis GMFI, Ratio to 2nd Only, x axis Log[Ab], nM (the legend calls it a NAD-Glo assay); the curve rises from about 3.3 to a plateau of about 13
[5] = molecular target: T2, purified recombinant human ART1; assay: sensorgrams R [RU] against time [s] with fitted lines, panel '14G01 Binding huART1', huART1 at 100.0, 25.00, 12.50, 6.250, 3.125, 1.563 nM; format not told for this figure (FIG. 12 legend: SPR, antibody captured on anti-mouse Fc, 1:1 fit)
[6] = molecular target: T3, purified recombinant mouse ART1; assay: sensorgrams R [RU] against time [s] with fitted lines, panel '14G01 Binding moART1', moART1 at 200.0, 100.0, 25.00, 12.50, 3.125, 1.563 nM; format not told for this figure (FIG. 12 legend: SPR, antibody captured on anti-mouse Fc, 1:1 fit)

B1: 22C12 monoclonal antibody (parental, mouse light chain) (antibody, V domains shown)
VH: QVTLKESGPVLVKPTETLTLTCTVSGFSLSNARMGVSWIRQPPGKALEWLAHIFSNDEKSYSTSLKSRLTISKDTSKSQVVLTMTNMDPVDTATYYCARIYGGDSWGYFDNWGQGTLVTVSS
VL: QIVLTQSPAIMSASLGEKVTMTCSASSSVSYMHWYQQKSGTSPKRWIYDTSKLASGVPARFSGSGSGTSYSLTISSMEAGDAATYYCQQWSSNPPTFGAGTKLELK
notes: Purified from hybridoma supernatant (AlivaMab Mouse); VH is human and VK is mouse; The antibody was captured on an anti-mouse Fc surface in SPR; also called 22C12 (mLC); mLC22C12
With B1 the “IC50 Cell Surface ADP-Ribosylation” value [1] was 14 nM, the Kd [2] was 0.161 nM and the Kd [3] was 0.439 nM. For the same binder, the EC50 [4] was 0.75 nM.

B2: 14G01 monoclonal antibody (antibody, V domains shown)
VH: QVQLQESGPGLVKPSETLSLTCTVSGGSISSYYWSWIRQPAGKGLEWIGRISTSGFTNYNPSLKSRVTMSVDSSKNQFSLKLSSLTAADTAVYYCARDGWGRVFDIWGLGTMVTVSS
VL: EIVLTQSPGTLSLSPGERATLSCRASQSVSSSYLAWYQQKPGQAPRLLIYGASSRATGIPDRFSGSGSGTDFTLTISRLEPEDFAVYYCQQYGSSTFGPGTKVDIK
notes: Purified from hybridoma supernatant; VH and VK are human; The antibody was captured on an anti-mouse Fc surface in SPR
With B2 the “IC50 Cell Surface ADP-Ribosylation” value [1] was 28 nM, the Kd [2] was 4 nM and the Kd [3] was 6 nM. For the same binder, the Kd [5] was 3.8 nM and the Kd [6] was 6.2 nM.
